Experimental data from US20170313756A1.
Where two headings read alike, the source gives them in different places. [ ]: non-standard residue; d: D form. The star is where a group is joined. dCha = N[C@H](CC1CCCCC1)C(=O)O; NH(CH2)3Ph = c1ccc(CCCN*)cc1

What was measured:
[1] = target: melanocortin 1 receptor (MC1R) (UniProt Q01726); assay: 125I-NDP-MSH competition, HEK293 membranes
[2] = target: melanocortin 5 receptor (MC5R) (UniProt P33032); assay: 125I-NDP-MSH competition, HEK293 membranes
[3] = target: melanocortin 4 receptor (MC4R) (UniProt P32245); assay: 125I-NDP-MSH competition, HEK293 membranes
melanocortin 4 receptor (MC4R), sequence (P32245 whole entry): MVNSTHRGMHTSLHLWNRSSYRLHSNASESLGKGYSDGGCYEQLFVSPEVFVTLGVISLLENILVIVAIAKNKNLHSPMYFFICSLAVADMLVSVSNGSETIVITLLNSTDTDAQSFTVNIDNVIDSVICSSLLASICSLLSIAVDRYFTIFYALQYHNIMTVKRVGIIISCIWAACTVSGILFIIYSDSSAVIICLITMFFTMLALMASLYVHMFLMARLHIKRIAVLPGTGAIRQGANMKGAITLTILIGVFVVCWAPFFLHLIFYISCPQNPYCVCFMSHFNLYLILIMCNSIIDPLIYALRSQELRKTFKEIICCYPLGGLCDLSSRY

[4] = target: melanocortin 3 receptor (MC3R) (UniProt P41968); assay: 125I-NDP-MSH competition, HEK293 membranes
melanocortin 3 receptor (MC3R), sequence (P41968 whole entry): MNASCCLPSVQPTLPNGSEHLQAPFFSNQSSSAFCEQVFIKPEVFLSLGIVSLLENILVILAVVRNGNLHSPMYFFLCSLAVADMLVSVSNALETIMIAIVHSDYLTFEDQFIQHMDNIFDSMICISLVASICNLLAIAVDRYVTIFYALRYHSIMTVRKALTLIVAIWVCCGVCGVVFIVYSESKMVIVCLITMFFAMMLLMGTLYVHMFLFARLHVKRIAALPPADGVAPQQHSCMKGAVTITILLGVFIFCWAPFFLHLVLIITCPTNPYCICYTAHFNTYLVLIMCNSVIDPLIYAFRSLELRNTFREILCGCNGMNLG

[5] = target: melanocortin 1 receptor (MC1R) (UniProt Q01726); assay: 125I-NDP-MSH competition, HEK293 membranes; remark: listed apart in the source
[6] = target: mouse MC1R (on murine B16-F1 melanoma cells) (mouse) (UniProt Q01727); assay: cell-based or functional assay
mouse MC1R (on murine B16-F1 melanoma cells) (mouse), sequence (Q01727 whole entry): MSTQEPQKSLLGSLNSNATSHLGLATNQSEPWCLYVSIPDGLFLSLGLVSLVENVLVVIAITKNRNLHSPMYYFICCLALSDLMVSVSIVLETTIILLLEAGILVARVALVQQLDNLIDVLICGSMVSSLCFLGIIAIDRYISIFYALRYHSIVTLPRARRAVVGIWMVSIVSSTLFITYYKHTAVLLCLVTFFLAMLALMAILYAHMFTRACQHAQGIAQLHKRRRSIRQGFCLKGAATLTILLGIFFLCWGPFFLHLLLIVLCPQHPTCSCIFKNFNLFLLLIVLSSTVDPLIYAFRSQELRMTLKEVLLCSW

melanocortin 5 receptor (MC5R), sequence (P33032 whole entry): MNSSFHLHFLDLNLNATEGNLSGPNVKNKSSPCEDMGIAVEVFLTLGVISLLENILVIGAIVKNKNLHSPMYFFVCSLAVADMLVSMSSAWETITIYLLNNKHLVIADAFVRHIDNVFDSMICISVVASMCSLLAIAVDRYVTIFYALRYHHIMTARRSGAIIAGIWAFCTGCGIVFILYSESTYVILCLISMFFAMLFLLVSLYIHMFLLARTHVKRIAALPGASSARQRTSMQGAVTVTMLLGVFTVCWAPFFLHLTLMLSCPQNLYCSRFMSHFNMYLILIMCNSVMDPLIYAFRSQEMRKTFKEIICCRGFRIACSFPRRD
melanocortin 1 receptor (MC1R), sequence (Q01726 whole entry): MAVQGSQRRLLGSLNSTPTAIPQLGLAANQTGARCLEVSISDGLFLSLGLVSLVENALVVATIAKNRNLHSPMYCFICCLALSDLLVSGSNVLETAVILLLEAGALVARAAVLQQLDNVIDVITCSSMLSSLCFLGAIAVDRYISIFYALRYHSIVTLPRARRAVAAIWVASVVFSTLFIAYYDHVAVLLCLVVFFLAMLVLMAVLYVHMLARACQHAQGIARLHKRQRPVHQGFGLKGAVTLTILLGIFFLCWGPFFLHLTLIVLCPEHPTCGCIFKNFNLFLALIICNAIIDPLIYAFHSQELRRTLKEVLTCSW

B1: peptide 869 (peptide)
peptide: VPKGWRXHEMSYS
modifications: N-terminal acetyl (Ac); C-terminal amide; D-cyclohexylalanine (D-Cha) at 7; D-isomers at all residues except Gly 4
Binder B1 has a Ki [1] of 0.0022 µM and a Ki [2] of 25 µM.

B2: peptide 886 (peptide)
peptide: Ac-[dV][dP][dK]G[dW][dR][dF][dH][dS][dI][dI][dS][dS]-NH2
SMILES: CC[C@@H](C)[C@@H](NC(=O)[C@@H](CO)NC(=O)[C@@H](Cc1c[nH]cn1)NC(=O)[C@@H](Cc1ccccc1)NC(=O)[C@@H](CCCNC(=N)N)NC(=O)[C@@H](Cc1c[nH]c2ccccc12)NC(=O)CNC(=O)[C@@H](CCCCN)NC(=O)[C@H]1CCCN1C(=O)[C@H](NC(C)=O)C(C)C)C(=O)N[C@@H](C(=O)N[C@H](CO)C(=O)N[C@H](CO)C(N)=O)[C@H](C)CC
B2 showed a Ki [1] of 0.001 µM, a Ki [2] of 20 µM and a Ki [3] of 10 µM. The Ki [4] was 19 µM.

B3: peptide 867 (peptide)
peptide: VPKGWRXHEMSYS
modifications: N-terminal acetyl (Ac); C-terminal amide; 3-pyridyl-D-Alanine at 7; D-isomers at all residues except Gly 4
B3 showed a Ki [1] of 0.48 µM.

B4: peptide 890 (peptide)
peptide: VPKGWRXHEXSYS
modifications: N-terminal acetyl (Ac); C-terminal amide; D-Cha at 7; D-buthionine at 10; D-isomers at all residues except Gly 4
Binder B4 has a Ki [1] of 0.0019 µM, a Ki [2] of 4.5 µM and a Ki [3] of 14 µM. It also gave a Ki [4] of 15 µM.

B5: peptide 873 (peptide)
peptide: VPKGWRFWEMSYS
modifications: N-terminal acetyl (Ac); C-terminal amide; D-isomers at all residues except Gly 4
For B5, the Ki [1] was 1.9 µM.

B6: peptide 878 (peptide)
peptide: VPKGWRFHEXSYS
modifications: N-terminal acetyl (Ac); C-terminal amide; D-buthionine at 10; D-isomers at all residues except Gly 4
Work on B6 yielded a Ki [1] of 0.0023 µM, a Ki [2] of 30 µM and a Ki [4] of 40 µM.

B7: peptide 883 (peptide)
peptide: Ac-[dW][dR]F[dH]-NH2
In the case of B7, the Ki [5] is reported as > 30 µM.

B8: peptide 871 (peptide)
peptide: VPKGWRXHEMSYS
modifications: N-terminal acetyl (Ac); C-terminal amide; 4-Nitro-D-Phe at 7; D-isomers at all residues except Gly 4
B8 showed a Ki [1] of 0.324 µM.

B9: peptide 847 (peptide)
peptide: H-[dV][dP][dK]G[dW][dR][dF][dH]-{NH(CH2)3Ph}
SMILES: CC(C)[C@@H](N)C(=O)N1CCC[C@@H]1C(=O)N[C@H](CCCCN)C(=O)NCC(=O)N[C@H](Cc1c[nH]c2ccccc12)C(=O)N[C@H](CCCNC(=N)N)C(=O)N[C@H](Cc1ccccc1)C(=O)N[C@H](Cc1c[nH]cn1)C(=O)NCCCc1ccccc1
B9 showed a Ki [1] of 0.104 µM and a Ki [5] of 0.15 µM.

B10: peptide 811 (peptide)
peptide: VPKGWAFHEMSYS
modifications: N-terminal acetyl (Ac); C-terminal amide; D-isomers at all residues except Gly 4
With B10 the Ki [1] was 13 µM.

B11: peptide 880 (peptide)
peptide: Ac-[dV][dP][dK]G[dW][dR]F[dH][dS][dI][dI][dS][dS]-NH2
SMILES: CC[C@@H](C)[C@@H](NC(=O)[C@@H](CO)NC(=O)[C@@H](Cc1c[nH]cn1)NC(=O)[C@H](Cc1ccccc1)NC(=O)[C@@H](CCCNC(=N)N)NC(=O)[C@@H](Cc1c[nH]c2ccccc12)NC(=O)CNC(=O)[C@@H](CCCCN)NC(=O)[C@H]1CCCN1C(=O)[C@H](NC(C)=O)C(C)C)C(=O)N[C@@H](C(=O)N[C@H](CO)C(=O)N[C@H](CO)C(N)=O)[C@H](C)CC
B11 showed a Ki [1] of 0.0018 µM, a Ki [3] of 10 µM and a Ki [4] of 18 µM.

B12: peptide 868 (peptide)
peptide: VPKGWRXHEMSYS
modifications: N-terminal acetyl (Ac); C-terminal amide; 2-thienyl-D-Alanine at 7; D-isomers at all residues except Gly 4
B12 showed a Ki [1] of 0.0054 µM.

B13: peptide 812 (peptide)
peptide: VPKGARFHEMSYS
modifications: N-terminal acetyl (Ac); C-terminal amide; D-isomers at all residues except Gly 4
B13 gave a Ki [1] of 3 µM.

B14: peptide 858 (peptide)
peptide: VPXGWRFHEMSYS
modifications: N-terminal acetyl (Ac); C-terminal amide; D-Norleucine at 3; D-isomers at all residues except Gly 4
B14 showed a Ki [1] of 0.018 µM.

B15: peptide 808 (peptide)
peptide: VPKGWRFHAMSYS
modifications: N-terminal acetyl (Ac); C-terminal amide; D-isomers at all residues except Gly 4
With B15 the Ki [1] was 0.0025 µM.

B16: peptide 861 (peptide)
peptide: VPKGXRFHEMSYS
modifications: N-terminal acetyl (Ac); C-terminal amide; 5-methoxy-D-Trp at 5; D-isomers at all residues except Gly 4
Work on B16 yielded a Ki [1] of 0.075 µM.

B17: peptide 875 (peptide)
peptide: VPKGWRFHDMSYS
modifications: N-terminal acetyl (Ac); C-terminal amide; D-isomers at all residues except Gly 4
Binder B17 has a Ki [1] of 0.4 µM.

B18: RI α-MSH analog 891 (peptide)
peptide: Ac-[dV][dP][dK]G[dW][dR][dCha][dH][dS][dI][dI][dS][dS]-NH2
SMILES: CC[C@@H](C)[C@@H](NC(=O)[C@@H](CO)NC(=O)[C@@H](Cc1c[nH]cn1)NC(=O)[C@@H](CC1CCCCC1)NC(=O)[C@@H](CCCNC(=N)N)NC(=O)[C@@H](Cc1c[nH]c2ccccc12)NC(=O)CNC(=O)[C@@H](CCCCN)NC(=O)[C@H]1CCCN1C(=O)[C@H](NC(C)=O)C(C)C)C(=O)N[C@@H](C(=O)N[C@H](CO)C(=O)N[C@H](CO)C(N)=O)[C@H](C)CC
Work on B18 yielded an EC50, cAMP in B16-F1 cells [6] of 0.081 µM, a Ki [1] of 0.00043 µM and a Ki [2] of 2.5 µM. It also gave a Ki [3] of 3.2 µM and a Ki [4] of 8 µM.

B19: peptide 879 (peptide)
peptide: VPKGWRFHEKSYS
modifications: N-terminal acetyl (Ac); C-terminal amide; D-isomers at all residues except Gly 4
For B19, the Ki [1] was 0.832 µM.

B20: peptide 857 (peptide)
peptide: VPXGWRFHEMSYS
modifications: N-terminal acetyl (Ac); C-terminal amide; D-Ornithine at 3; D-isomers at all residues except Gly 4
In the case of B20, the Ki [1] is reported as 0.003 µM.

B21: peptide 882 (peptide)
peptide: Ac-[dW][dR]F[dH]-{1,6‑diaminohexane-stearyl}
B21 was tested, and the Ki [1] was 0.12 µM and the fold improvement of binding over wrFh [5] was > 250 fold.

B22: peptide 860 (peptide)
peptide: VPKGXRFHEMSYS
modifications: N-terminal acetyl (Ac); C-terminal amide; 5-hydroxy-D-Trp at 5; D-isomers at all residues except Gly 4
With B22 the Ki [1] was 0.096 µM.

B23: peptide 847int (peptide)
peptide: H-[dV][dP][dK]G[dW][dR][dF][dH]-OH
SMILES: CC(C)[C@@H](N)C(=O)N1CCC[C@@H]1C(=O)N[C@H](CCCCN)C(=O)NCC(=O)N[C@H](Cc1c[nH]c2ccccc12)C(=O)N[C@H](CCCNC(=N)N)C(=O)N[C@H](Cc1ccccc1)C(=O)N[C@H](Cc1c[nH]cn1)C(=O)O
B23 was tested, and the Ki [1] was 0.15 µM.

B24: peptide 877 (peptide)
peptide: VPKGWRFHEXSYS
modifications: N-terminal acetyl (Ac); C-terminal amide; α-methyl-D-Met at 10; D-isomers at all residues except Gly 4
Work on B24 yielded a Ki [1] of 0.282 µM.

B25: peptide 872 (peptide)
peptide: VPKGWRFREMSYS
modifications: N-terminal acetyl (Ac); C-terminal amide; D-isomers at all residues except Gly 4
Work on B25 yielded a Ki [1] of 0.0135 µM.

B26: peptide 859 (peptide)
peptide: VPKGXRFHEMSYS
modifications: N-terminal acetyl (Ac); C-terminal amide; 3-benzothienyl-D-Alanine at 5; D-isomers at all residues except Gly 4
B26 showed a Ki [1] of 0.206 µM.

B27: peptide 862-b (peptide)
peptide: VPKGFRFHEMSYS
modifications: N-terminal acetyl (Ac); C-terminal amide; D-isomers at all residues except Gly 4
Work on B27 yielded a Ki [1] of 0.128 µM.

B28: peptide 870 (peptide)
peptide: VPKGWRWHEMSYS
modifications: N-terminal acetyl (Ac); C-terminal amide; D-isomers at all residues except Gly 4
Binder B28 has a Ki [1] of 2.5 µM.

B29: peptide 865 (peptide)
peptide: VPKGWHFHEMSYS
modifications: N-terminal acetyl (Ac); C-terminal amide; D-isomers at all residues except Gly 4
In the case of B29, the Ki [1] is reported as 2.3 µM.

B30: peptide 807 (peptide)
peptide: VPKGWRFHEASYS
modifications: N-terminal acetyl (Ac); C-terminal amide; D-isomers at all residues except Gly 4
B30 showed a Ki [1] of 1.4 µM.

B31: peptide 809 (peptide)
peptide: VPKGWRFAEMSYS
modifications: N-terminal acetyl (Ac); C-terminal amide; D-isomers at all residues except Gly 4
Binder B31 has a Ki [1] of 1.2 µM.
